According to the supplement of paper PMC10065799, “High-throughput profiling of sequence recognition by tyrosine kinases and SH2 domains using bacterial peptide display” (eLife, 2023):

How the values were obtained:
[1] = tested on: AncSZ; experiment: phosphorylation enrichment, bacterial display (enrichment ratio); higher = better substrate or ligand; peptides without Tyr show the background
[2] = biological target: EPHB1 (UniProt P54762); experiment: as above
[3] = biological target: EPHB2 (UniProt P29323); experiment: as above
[4] = biological target: FGFR1 (UniProt P11362); experiment: as above
[5] = biological target: FGFR3 (UniProt P22607); experiment: as above
[6] = tested on: Fer (mouse); experiment: as above
[7] = biological target: Fes (UniProt P07332); experiment: as above
[8] = biological target: Fyn (UniProt P06241); experiment: as above
[9] = biological target: Hck (UniProt P08631); experiment: as above
[10] = biological target: Jak2 (UniProt O60674); experiment: as above
[11] = biological target: MERTK (UniProt Q12866); experiment: as above
[12] = tested on: c-Abl (mouse); experiment: as above
[13] = tested on: c-Src; experiment: as above
[14] = biological target: Grb2 SH2 (UniProt P62993); experiment: SH2 binding enrichment of the phosphorylated peptide, bacterial display (enrichment ratio); higher = better substrate or ligand; peptides without Tyr show the background
[15] = biological target: SHP2-C SH2; experiment: as above
[16] = biological target: c-Src SH2; experiment: as above
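For SH2 binding enrichment of the phosphorylated peptide, bacterial display in this document: peptide library displayed on the E. coli surface as eCPX fusions, selected cells deep-sequenced, score is each peptide's frequency after selection divided by its frequency in the input.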
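For phosphorylation enrichment, bacterial display in this document: 11-residue human phosphosite peptides and single-mutation variants displayed on the E. coli surface, counted by deep sequencing, each peptide's frequency after selection divided by its frequency in the unselected input library; frequency after pTyr selection over input frequency; kinase dosed for 20-30% of maximal phosphorylation in three min.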

Sequence of EPHB2 (P29323 whole entry, looked up): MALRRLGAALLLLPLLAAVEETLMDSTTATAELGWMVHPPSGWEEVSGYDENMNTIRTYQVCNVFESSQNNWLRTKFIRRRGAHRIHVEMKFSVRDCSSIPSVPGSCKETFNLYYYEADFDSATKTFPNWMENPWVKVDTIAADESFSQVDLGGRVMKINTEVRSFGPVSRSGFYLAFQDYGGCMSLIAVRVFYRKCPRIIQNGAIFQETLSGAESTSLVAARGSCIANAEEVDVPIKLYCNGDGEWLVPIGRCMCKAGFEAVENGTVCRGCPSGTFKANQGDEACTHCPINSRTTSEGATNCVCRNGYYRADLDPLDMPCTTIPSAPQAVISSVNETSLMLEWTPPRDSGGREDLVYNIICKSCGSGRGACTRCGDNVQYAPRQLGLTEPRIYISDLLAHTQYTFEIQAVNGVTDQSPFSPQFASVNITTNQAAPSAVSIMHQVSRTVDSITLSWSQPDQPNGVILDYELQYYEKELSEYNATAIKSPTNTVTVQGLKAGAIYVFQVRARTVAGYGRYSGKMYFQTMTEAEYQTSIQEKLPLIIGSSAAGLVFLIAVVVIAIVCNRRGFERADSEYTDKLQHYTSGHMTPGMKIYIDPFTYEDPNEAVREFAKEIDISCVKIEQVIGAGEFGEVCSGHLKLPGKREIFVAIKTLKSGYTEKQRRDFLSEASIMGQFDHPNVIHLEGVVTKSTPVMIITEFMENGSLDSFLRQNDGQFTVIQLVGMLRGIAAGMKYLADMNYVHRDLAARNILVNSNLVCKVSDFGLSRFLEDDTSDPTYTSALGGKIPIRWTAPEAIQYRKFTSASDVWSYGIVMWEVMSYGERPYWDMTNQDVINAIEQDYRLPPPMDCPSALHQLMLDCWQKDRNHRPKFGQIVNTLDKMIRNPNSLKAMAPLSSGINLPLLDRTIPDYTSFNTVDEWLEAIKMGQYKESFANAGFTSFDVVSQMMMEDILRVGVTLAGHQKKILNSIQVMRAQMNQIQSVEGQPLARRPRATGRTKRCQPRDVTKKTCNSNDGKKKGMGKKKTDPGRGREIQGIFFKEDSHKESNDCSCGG
Sequence of Grb2 SH2 (P62993 whole entry, looked up): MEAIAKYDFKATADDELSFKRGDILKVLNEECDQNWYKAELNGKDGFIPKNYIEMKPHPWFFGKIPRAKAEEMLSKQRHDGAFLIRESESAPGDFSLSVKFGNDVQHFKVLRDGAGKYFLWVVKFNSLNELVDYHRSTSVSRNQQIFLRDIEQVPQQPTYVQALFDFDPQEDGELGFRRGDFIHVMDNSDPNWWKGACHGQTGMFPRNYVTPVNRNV
Sequence of MERTK (Q12866 whole entry, looked up): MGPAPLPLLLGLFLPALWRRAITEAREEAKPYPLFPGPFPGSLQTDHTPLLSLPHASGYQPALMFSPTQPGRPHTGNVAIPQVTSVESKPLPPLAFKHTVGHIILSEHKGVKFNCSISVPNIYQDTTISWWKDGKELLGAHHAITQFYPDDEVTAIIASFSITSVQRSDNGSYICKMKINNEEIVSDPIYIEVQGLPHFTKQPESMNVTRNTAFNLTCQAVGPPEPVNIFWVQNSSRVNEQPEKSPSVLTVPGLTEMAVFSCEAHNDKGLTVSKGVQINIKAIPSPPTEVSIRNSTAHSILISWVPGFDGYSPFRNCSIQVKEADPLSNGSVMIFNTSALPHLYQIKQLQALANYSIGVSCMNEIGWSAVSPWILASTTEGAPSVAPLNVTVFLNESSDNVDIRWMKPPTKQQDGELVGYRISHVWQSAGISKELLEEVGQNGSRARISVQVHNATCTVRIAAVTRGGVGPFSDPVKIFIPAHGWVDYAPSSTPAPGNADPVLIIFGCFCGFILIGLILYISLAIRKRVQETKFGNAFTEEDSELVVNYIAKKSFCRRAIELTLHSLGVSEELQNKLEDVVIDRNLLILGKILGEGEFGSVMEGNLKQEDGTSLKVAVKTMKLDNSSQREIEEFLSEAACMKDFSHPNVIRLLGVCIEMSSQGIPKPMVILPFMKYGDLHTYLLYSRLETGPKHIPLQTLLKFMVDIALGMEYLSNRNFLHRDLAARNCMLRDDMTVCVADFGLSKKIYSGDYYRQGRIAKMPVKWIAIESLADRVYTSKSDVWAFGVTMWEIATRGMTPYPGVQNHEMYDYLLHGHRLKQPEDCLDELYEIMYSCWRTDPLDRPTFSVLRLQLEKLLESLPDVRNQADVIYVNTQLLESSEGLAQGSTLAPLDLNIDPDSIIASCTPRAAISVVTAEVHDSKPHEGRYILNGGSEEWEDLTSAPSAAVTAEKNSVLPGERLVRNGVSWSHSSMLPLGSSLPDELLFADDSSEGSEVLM
Sequence of Jak2 (O60674 whole entry, looked up): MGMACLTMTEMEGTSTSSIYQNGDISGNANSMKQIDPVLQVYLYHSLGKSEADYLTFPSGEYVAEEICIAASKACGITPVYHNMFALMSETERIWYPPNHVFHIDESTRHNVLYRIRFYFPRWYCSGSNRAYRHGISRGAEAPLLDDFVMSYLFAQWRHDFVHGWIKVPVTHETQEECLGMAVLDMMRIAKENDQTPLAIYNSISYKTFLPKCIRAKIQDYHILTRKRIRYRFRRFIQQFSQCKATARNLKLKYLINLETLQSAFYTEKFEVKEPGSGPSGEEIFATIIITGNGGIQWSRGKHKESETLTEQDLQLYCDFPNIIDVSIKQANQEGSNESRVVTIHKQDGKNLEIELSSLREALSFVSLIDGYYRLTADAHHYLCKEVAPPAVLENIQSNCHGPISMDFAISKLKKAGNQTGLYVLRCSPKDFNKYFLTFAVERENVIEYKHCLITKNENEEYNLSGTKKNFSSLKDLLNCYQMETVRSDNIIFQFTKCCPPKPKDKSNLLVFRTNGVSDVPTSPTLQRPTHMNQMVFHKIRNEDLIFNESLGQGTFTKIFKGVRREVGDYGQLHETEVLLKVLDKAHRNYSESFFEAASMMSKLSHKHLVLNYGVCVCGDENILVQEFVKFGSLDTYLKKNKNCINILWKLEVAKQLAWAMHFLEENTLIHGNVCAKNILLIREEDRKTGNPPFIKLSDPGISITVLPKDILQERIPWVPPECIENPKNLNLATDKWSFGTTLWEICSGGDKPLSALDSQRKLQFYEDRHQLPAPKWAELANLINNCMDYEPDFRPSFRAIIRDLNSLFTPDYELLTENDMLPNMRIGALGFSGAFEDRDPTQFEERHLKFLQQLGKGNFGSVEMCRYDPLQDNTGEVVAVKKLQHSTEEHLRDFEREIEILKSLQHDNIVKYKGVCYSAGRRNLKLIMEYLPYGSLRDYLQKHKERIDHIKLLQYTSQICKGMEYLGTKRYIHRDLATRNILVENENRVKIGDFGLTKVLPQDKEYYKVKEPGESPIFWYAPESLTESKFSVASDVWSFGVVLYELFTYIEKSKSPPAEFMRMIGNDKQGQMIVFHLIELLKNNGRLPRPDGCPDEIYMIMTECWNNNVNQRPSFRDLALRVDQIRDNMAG
Sequence of Hck (P08631 whole entry, looked up): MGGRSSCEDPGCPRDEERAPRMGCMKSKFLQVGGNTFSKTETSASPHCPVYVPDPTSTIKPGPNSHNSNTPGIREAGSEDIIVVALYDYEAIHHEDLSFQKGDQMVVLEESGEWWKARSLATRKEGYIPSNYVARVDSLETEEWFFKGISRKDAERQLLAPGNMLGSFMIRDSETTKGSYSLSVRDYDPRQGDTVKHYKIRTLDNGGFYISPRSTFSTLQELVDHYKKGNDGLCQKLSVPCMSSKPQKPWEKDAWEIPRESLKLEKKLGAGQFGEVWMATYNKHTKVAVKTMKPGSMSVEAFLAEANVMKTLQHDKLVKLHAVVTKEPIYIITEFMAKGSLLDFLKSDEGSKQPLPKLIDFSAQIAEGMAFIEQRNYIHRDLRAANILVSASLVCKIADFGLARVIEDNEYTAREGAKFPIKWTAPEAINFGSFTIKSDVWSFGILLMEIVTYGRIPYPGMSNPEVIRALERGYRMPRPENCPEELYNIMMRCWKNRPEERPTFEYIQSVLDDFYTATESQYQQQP
Sequence of Fyn (P06241 whole entry, looked up): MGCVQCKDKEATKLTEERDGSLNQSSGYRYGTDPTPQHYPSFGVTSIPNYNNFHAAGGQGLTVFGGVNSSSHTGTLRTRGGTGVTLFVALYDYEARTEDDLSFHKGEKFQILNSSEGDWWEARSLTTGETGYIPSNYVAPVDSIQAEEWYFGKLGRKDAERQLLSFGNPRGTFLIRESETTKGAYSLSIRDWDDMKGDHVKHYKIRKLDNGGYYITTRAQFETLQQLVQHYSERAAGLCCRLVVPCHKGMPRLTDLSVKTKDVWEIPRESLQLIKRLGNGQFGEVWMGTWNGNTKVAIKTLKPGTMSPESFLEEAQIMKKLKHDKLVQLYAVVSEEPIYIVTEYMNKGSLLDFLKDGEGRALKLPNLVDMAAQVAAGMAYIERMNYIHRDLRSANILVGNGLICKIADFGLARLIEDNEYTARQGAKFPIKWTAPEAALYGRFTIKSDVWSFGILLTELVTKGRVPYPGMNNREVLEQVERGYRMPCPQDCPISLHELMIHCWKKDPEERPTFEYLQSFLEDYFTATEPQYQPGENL

Row | Sequence | phosphorylation enrichment [1] | phosphorylation enrichment [2] | phosphorylation enrichment [3] | phosphorylation enrichment [4] | phosphorylation enrichment [5] | phosphorylation enrichment [6] | phosphorylation enrichment [7] | phosphorylation enrichment [8] | phosphorylation enrichment [9] | phosphorylation enrichment [10] | phosphorylation enrichment [11] | phosphorylation enrichment [12] | phosphorylation enrichment [13] | SH2 binding enrichment [14] | SH2 binding enrichment [15] | SH2 binding enrichment [16]
1 | PLYSKYWPNHI [GREB1L_Y1560_R1558S] | 2.47 | 19.1 | 29.7 | 5.11 | 3.06 | 12.3 | 1.27 | 19.9 | 17.4 | 6.37 | 20.1 | 22.6 | 11.8 | 1.2 | 0.732 | 0.608
2 | NHYKIYNPCAE [PTEN_Y68_L70P] | 0.714 | 0.437 | 0.48 | 0.485 | 0.573 | 0.382 | 0.834 | 0.508 | 0.55 | 0.569 | 0.427 | 0.607 | 0.424 | 0.752 | 0.761 | 0.427
3 | EPTPGYEVSQR [TSC2_Y1788_G1791S] | 0.83 | 0.434 | 0.549 | 0.46 | 0.641 | 0.447 | 0.888 | 0.437 | 0.441 | 0.706 | 0.427 | 0.615 | 0.383 | 0.858 | 0.629 | 0.56
4 | DKITQYVEEVK [STX2_Y49] | 1.11 | 0.507 | 0.581 | 0.552 | 0.78 | 0.479 | 1.23 | 0.509 | 0.421 | 0.876 | 0.505 | 0.698 | 0.425 | 0.918 | 0.752 | 0.555
5 | KVVQEYERVII [NPHS2_Y131] | 1.09 | 3.17 | 2.79 | 0.633 | 0.719 | 3.84 | 0.956 | 0.485 | 0.563 | 0.801 | 0.435 | 0.757 | 0.457 | 0.811 | 0.653 | 0.564
6 | GKMSSYAFFVQ [HMGB1_Y16] | 1.01 | 0.809 | 0.711 | 0.603 | 0.741 | 0.474 | 1.14 | 0.505 | 0.513 | 1.01 | 1.29 | 0.849 | 0.562 | 1.13 | 1.51 | 0.982
7 | FADPFYDFEIE [ZC3H18_Y372_YF] | 1.36 | 0.785 | 0.687 | 0.57 | 0.708 | 0.752 | 1.19 | 3.26 | 0.674 | 1.12 | 0.555 | 0.817 | 3.4 | 1.42 | 0.8 | 0.693
8 | RLEKEYFDQHF [NPC1_Y394] | 1.13 | 0.717 | 0.707 | 1.39 | 0.959 | 0.5 | 1.29 | 0.341 | 0.665 | 1.44 | 0.631 | 0.795 | 0.571 | 0.865 | 0.821 | 0.604
9 | PEVSGYCHYAD [TG_Y234_C237Y] | 0.864 | 0.831 | 0.616 | 0.427 | 0.714 | 1.1 | 1.1 | 0.506 | 0.658 | 1.04 | 0.425 | 1.2 | 0.454 | 0.691 | 0.676 | 0.935
10 | HKANEYFPVVI [ADAMTS18_Y764_L769I_YF] | 1.35 | 0.762 | 0.806 | 11.8 | 5.96 | 0.874 | 0.973 | 0.594 | 0.569 | 2.38 | 0.663 | 1.01 | 0.625 | 0.767 | 0.86 | 0.485
11 | GRIHSYRGHLW [VHL_Y112_R107G] | 0.585 | 0.387 | 0.392 | 0.363 | 0.438 | 0.373 | 0.712 | 0.38 | 0.359 | 0.535 | 0.357 | 0.51 | 0.347 | 1.85 | 1.99 | 1.61
12 | VEGIGYDFIPT [CBS_Y308] | 1.04 | 0.579 | 0.576 | 0.588 | 0.685 | 0.43 | 1.12 | 0.594 | 0.785 | 0.827 | 0.501 | 0.723 | 0.539 | 0.79 | 1.02 | 7.71
13 | CGTPDNIAPEI [PRKCG_Y521_Y521N] | 1.17 | 0.72 | 0.762 | 0.51 | 0.933 | 0.548 | 1.49 | 0.593 | 0.609 | 0.989 | 0.459 | 0.782 | 0.458 | 0.777 | 0.533 | 0.485
14 | GSESDYIVMPN [SCARB1_Y133] | 2.88 | 8.5 | 8.31 | 5.92 | 3.84 | 0.455 | 1.04 | 0.575 | 0.527 | 1.03 | 0.538 | 0.752 | 0.63 | 0.874 | 0.55 | 0.455
15 | KDHPDYKFQAR [SOX10_Y171_P175A_YF] | 0.757 | 0.409 | 0.408 | 0.466 | 0.489 | 0.485 | 0.658 | 0.458 | 0.482 | 0.559 | 0.405 | 0.626 | 0.489 | 0.835 | 0.813 | 0.516
16 | HFNLTYRILSF [MMP23B_Y95] | 1.6 | 0.826 | 0.615 | 0.486 | 1.19 | 0.726 | 1.8 | 0.391 | 0.644 | 1.8 | 0.481 | 1.47 | 0.636 | 0.586 | 0.587 | 0.326
17 | INSLKYAYNIS [EIF2B5_Y583] | 0.476 | 0.403 | 0.368 | 0.425 | 0.474 | 0.392 | 0.762 | 0.414 | 0.401 | 0.569 | 0.398 | 0.421 | 0.412 | 0.778 | 0.598 | 0.665
18 | RGRSTCYWPRP [GAGE12J_Y9_Y9C] | 1.06 | 0.688 | 0.6 | 0.704 | 0.981 | 0.582 | 0.756 | 0.599 | 0.736 | 0.655 | 0.732 | 0.623 | 0.816 | 0.642 | 0.714 | 0.658
19 | LEQDEYALHSH [HADHB_Y244_R247H] | 1.45 | 0.882 | 0.669 | 0.847 | 0.805 | 0.642 | 1.24 | 0.887 | 0.598 | 1.2 | 0.578 | 1.1 | 0.665 | 0.744 | 0.561 | 0.452
20 | LVLIKYLPEWT [PSEN1_Y240_F237L] | 1.19 | 0.827 | 0.611 | 0.547 | 1.08 | 0.597 | 1.43 | 0.501 | 0.569 | 1.44 | 0.56 | 1.07 | 0.463 | 2.06 | 1.99 | 1.21
21 | LAAAKYKLNVD [SMARCA2_Y1190] | 0.444 | 0.426 | 0.336 | 0.322 | 0.556 | 0.52 | 0.766 | 0.262 | 0.181 | 0.42 | 0.309 | 0.593 | 0.489 | 0.812 | 1.17 | 0.386
22 | TVFSDYLHPQY [CCPG1_Y569] | 2.34 | 0.727 | 0.505 | 0.699 | 0.723 | 0.398 | 0.944 | 0.43 | 0.457 | 1.36 | 0.417 | 0.785 | 0.498 | 0.88 | 0.76 | 0.541
23 | TTPAVYARVTK [CTRB2_Y246_A250T] | 0.443 | 0.665 | 0.768 | 0.262 | 0.496 | 0.378 | 0.442 | 2.46 | 2.42 | 0.618 | 0.725 | 1.32 | 3.55 | 0.696 | 0.383 | 2.11
24 | CTTIHYNFLCN [TP53_Y234_M237L_YF] | 0.873 | 0.54 | 0.576 | 0.556 | 0.674 | 0.554 | 0.941 | 0.531 | 0.469 | 0.623 | 0.435 | 0.585 | 0.499 | 1.93 | 2.12 | 2.28
25 | SASQEYHIVKK [PDZD2_Y557] | 0.779 | 0.512 | 0.527 | 0.905 | 0.538 | 0.48 | 0.676 | 0.422 | 0.513 | 0.572 | 0.507 | 0.697 | 0.441 | 0.78 | 0.893 | 0.792
26 | TLLERYGMIEI [ACSF3_Y355_T358I] | 0.798 | 0.606 | 0.535 | 0.515 | 0.644 | 0.632 | 1.06 | 0.525 | 0.465 | 1.02 | 0.489 | 0.802 | 0.472 | 0.748 | 0.884 | 0.983
27 | YCIDHYLGKEM [G6PD_Y202_R198C] | 0.892 | 0.499 | 0.567 | 0.567 | 0.558 | 0.952 | 0.827 | 0.503 | 0.694 | 0.75 | 0.64 | 0.611 | 0.606 | 0.981 | 1.05 | 1.01
28 | WISNRYPDFSS [PRPH2_Y184_L185P] | 0.798 | 0.434 | 0.552 | 0.533 | 0.685 | 0.484 | 0.953 | 0.404 | 0.497 | 0.841 | 0.487 | 0.66 | 0.52 | 0.964 | 0.71 | 0.5
29 | SARSAYQEAMD [SFN_Y151] | 0.81 | 0.474 | 0.584 | 0.418 | 0.539 | 0.402 | 0.854 | 0.495 | 0.445 | 0.638 | 0.38 | 0.628 | 0.353 | 0.766 | 0.713 | 1.06
